Where a chain is given by its changes, count along the chain named.
What was measured:
Experiment in all cases: FACS, MEF-DKO cells, 3 µg/ml
hiR2-FL-D538L-T7 = target: T1, hiR2-FL-D538L-T7 (human, UniProt Q6PJF5 1-856)
T1 sequence: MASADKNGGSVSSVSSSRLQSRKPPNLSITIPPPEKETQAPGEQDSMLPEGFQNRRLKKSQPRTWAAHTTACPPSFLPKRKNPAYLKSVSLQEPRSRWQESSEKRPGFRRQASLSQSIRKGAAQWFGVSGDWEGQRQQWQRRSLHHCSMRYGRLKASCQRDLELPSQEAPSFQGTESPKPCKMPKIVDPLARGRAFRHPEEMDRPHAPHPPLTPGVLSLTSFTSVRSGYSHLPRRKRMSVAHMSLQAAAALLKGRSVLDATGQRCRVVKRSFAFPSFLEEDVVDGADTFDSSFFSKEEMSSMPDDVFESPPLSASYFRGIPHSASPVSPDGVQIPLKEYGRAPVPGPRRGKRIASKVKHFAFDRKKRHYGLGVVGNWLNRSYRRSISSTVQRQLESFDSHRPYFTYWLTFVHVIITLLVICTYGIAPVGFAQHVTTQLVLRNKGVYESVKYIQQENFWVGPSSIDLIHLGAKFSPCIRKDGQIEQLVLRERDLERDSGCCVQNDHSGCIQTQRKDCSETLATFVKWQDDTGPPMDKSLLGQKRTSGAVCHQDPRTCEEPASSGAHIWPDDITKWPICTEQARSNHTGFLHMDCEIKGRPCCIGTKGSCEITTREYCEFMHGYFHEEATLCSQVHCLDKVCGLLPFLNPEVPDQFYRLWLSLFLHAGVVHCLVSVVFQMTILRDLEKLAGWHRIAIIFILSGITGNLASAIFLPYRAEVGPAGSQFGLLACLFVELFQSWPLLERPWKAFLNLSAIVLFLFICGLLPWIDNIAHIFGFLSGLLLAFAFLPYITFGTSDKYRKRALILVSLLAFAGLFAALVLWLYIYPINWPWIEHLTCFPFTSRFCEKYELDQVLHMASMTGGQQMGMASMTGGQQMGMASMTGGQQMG

hiR2-FL-S545F-T7 = target: T2, hiR2-FL-S545F-T7 (human, UniProt Q6PJF5 1-856)
T2 sequence: T1 sequence with L538D, S545F

hiR2-FL-D515E-T7 = target: T3, hiR2-FL-D515E-T7 (human, UniProt Q6PJF5 1-856)
T3 sequence: T1 sequence with D515E, L538D

Measured: loss of binding vs wild type

B1: antibody 48 (antibody, V domains shown)
VH: QVQLQQSGTELVRPGTSVKVSCKASGYAFTNYLIEWVKQRPGQGLEWIGVINPGSGFTKYNEKFKGKATLTADKSSSTVYMHLSSLTSEDSAVYFCARGLYRAMDYWGQGTSVTVSS
VL: DIQMTQSPASQSASLGESVTITCLASQTIATWLAWYQQKPGKSPQLLIYGATTLADGVPSRFSGGGSGTKFSFKISSLQAEDFVSYYCQQLYSTPYTFGGGTKLEIK
notes: mouse IgG, kappa light chain; also called clone #48; purified antibody 48
≥ 30%: all assays above

Reference: US20240287172A1 (SCIRHOM, published 2024)
